The source of these data is patent US20150030596A1 (SAMSUNG ELECTRONICS, published 2015).

The target of experiment [1] is T1, EGFR-Fc (#344-ER, R&D Systems) (UniProt P00533 25-645).
T1 construct: Bought reagent; also called EGFR (R&D systems); EGFR (#344-ER, R&D Systems); not shown: Fc part of the bought fusion protein; not described
Description: SPR (Biacore T100); ME-19 captured on human Fab binder on a CM5 chip, EGFR-Fc as analyte. How it is done: Human Fab binder (GE Healthcare) was immobilized on the surface of CM5 chip (#BR-1005-30, GE) according to the manufacturer's manual. […] 10 mM Glycine-HCl (pH 1.5) solution was added hereto, to regenerate the surface. To determine the affinity, the obtained data were fitted using BIA evaluation software (GE Healthcare, Biacore T100 evaluation software).

Experiment [2] deals with T1, EGFR-Fc (#344-ER, R&D Systems). Description: competitive ELISA: plate coated with EGFR (#344-ER, 0.25 ug/well), 20 ng/ml biotinylated EGF mixed with serially diluted ME-19, streptavidin/HRP detection, OD405. How it is done: 96-well immunoplate (Nunc) was coated with EGFR (#344-ER, R&D Systems) in the amount of 0.25 μg/well. […] The resulted reacting product was washed with PBS containing 0.05% (w/v) of Tween 20. HRP (Horse radish peroxidase) conjugated […] (#21140, Thermo scientific) was added to the each well and reacted at room temperature for 1 hour.

For experiment [3] the target is unchanged. Description: SPR (Biacore T100); ME-28 captured on human Fab binder on a CM5 chip, EGFR-Fc as analyte. How it is done:
The binding affinity of bispecific chimeric protein ME-28 to EGFR was examined using Biacore T100 (GE). Human Fab binder (GE Healthcare) was immobilized on the surface of CM5 chip (#BR-1005-30, GE) according to the manufacturer's manual. About 90˜120 RU of the bispecific chimeric protein ME-28 was captured, and various concentrations of EGFR-Fc (#344-ER, R&D Systems) were added to the captured bispecific chimeric protein. 10 mM Glycine-HCl (pH 1.5) solution was added hereto, to regenerate the surface. To determine the affinity, the obtained data were fitted using BIA evaluation software (GE Healthcare, Biacore T100 evaluation software).
A general note: Surface plasmon resonance follows binding to a sensor surface in real time, without labels.

B1: bispecific chimeric protein ME-19 (L3-1Y-IgG2 heavy chain-(G4S)2-anti-EGFR DARPin-01) (bispecific antibody)
heavy: EVQLVESGGGLVQPGGSLRLSCAASGFTFTDYYMSWVRQAPGKGLEWLGFIRNKANGYTTEYSASVKGRFTISRDNSKNTLYLQMNSLRAEDTAVYYCARDNWFAYWGQGTLVTVSSASTKGPSVFPLAPCSRSTSESTAALGCLVKDYFPEPVTVSWNSGALTSGVHTFPAVLQSSGLYSLSSVVTVPSSNFGTQTYTCNVDHKPSNTKVDKTVERKCCVECPPCPAPPVAGPSVFLFPPKPKDTLMISRTPEVTCVVVDVSHEDPEVQFNWYVDGVEVHNAKTKPREEQFNSTFRVVSVLTVVHQDWLNGKEYKCKVSNKGLPAPIEKTISKTKGQPREPQVYTLPPSREEMTKNQVSLTCLVKGFYPSDIAVEWESNGQPENNYKTTPPMLDSDGSFFLYSKLTVDKSRWQQGNVFSCSVMHEALHNHYTQKSLSLSPGKGGGGSGGGGSDLGKKLLEAARAGQDDEVRILMANGADVNADDTWGWTPLHLAAYQGHLEIVEVLLKNGADVNAYDYIGWTPLHLAADGHLEIVEVLLKNGADVNASDYIGDTPLHLAAHNGHLEIVEVLLKHGADVNAQDKFGKTAFDISIDNGNEDLAEILQ
light: DIQMTQSPSSLSASVGDRVTITCKSSQSLLASGNQNNYLAWYQQKPGKAPKMLIIWASTRVSGVPSRFSGSGSGTDFTLTISSLQPEDFATYYCQQSYSRPYTFGQGTKVEIKRTVAAPSVFIFPPSDEQLKSGTASVVCLLNNFYPREAKVQWKVDNALQSGNSQESVTEQDSKDSTYSLSSTLTLSKADYEKHKVYACEVTHQGLSSPVTKSFNRGEC
notes: The DARPin is fused to the C-terminus of each heavy chain; also called anti-c-Met/anti-EGFR DARPin bispecific chimeric protein
With B1, in experiment [1], binding was characterised by a dissociation constant (Kd) of 0.35 nM; the koff (as a rule, the first-order rate constant of dissociation) came out at 6.4e-05 s⁻¹; the kon (as a rule, the second-order rate constant of association) is 180000 M⁻¹ s⁻¹. Besides, the “IC50 (read off the curve)” value in experiment [2] is approximately 0.5 µg/mL.

B2: bispecific chimeric protein ME-28 (L3-1Y-IgG2 heavy chain-(G4S)2-anti-EGFR DARPin-01-(G4S)2-anti-EGFR DARPin-69) (bispecific antibody)
heavy: EVQLVESGGGLVQPGGSLRLSCAASGFTFTDYYMSWVRQAPGKGLEWLGFIRNKANGYTTEYSASVKGRFTISRDNSKNTLYLQMNSLRAEDTAVYYCARDNWFAYWGQGTLVTVSSASTKGPSVFPLAPCSRSTSESTAALGCLVKDYFPEPVTVSWNSGALTSGVHTFPAVLQSSGLYSLSSVVTVPSSNFGTQTYTCNVDHKPSNTKVDKTVERKCCVECPPCPAPPVAGPSVFLFPPKPKDTLMISRTPEVTCVVVDVSHEDPEVQFNWYVDGVEVHNAKTKPREEQFNSTFRVVSVLTVVHQDWLNGKEYKCKVSNKGLPAPIEKTISKTKGQPREPQVYTLPPSREEMTKNQVSLTCLVKGFYPSDIAVEWESNGQPENNYKTTPPMLDSDGSFFLYSKLTVDKSRWQQGNVFSCSVMHEALHNHYTQKSLSLSPGKGGGGSGGGGSDLGKKLLEAARAGQDDEVRILMANGADVNADDTWGWTPLHLAAYQGHLEIVEVLLKNGADVNAYDYIGWTPLHLAADGHLEIVEVLLKNGADVNASDYIGDTPLHLAAHNGHLEIVEVLLKHGADVNAQDKFGKTAFDISIDNGNEDLAEILQGGGGSGGGGSDLGKKLLEAARAGQDDEVRILMANGADVNADDNAGRTPLHLAANFGHLEIVEVLLKNGADVNAKGHHCNTPLHLAAWAGHLEIVEVLLKYGADVNADDDEGYTPLHLAADIGDLEIVEVLLKYGADVNAWDMYGRTPLHLAASAGHLEIVEVLLKYGADVNAQDKFGKTAFDISIDNGNEDLAEILQ
light: DIQMTQSPSSLSASVGDRVTITCKSSQSLLASGNQNNYLAWYQQKPGKAPKMLIIWASTRVSGVPSRFSGSGSGTDFTLTISSLQPEDFATYYCQQSYSRPYTFGQGTKVEIKRTVAAPSVFIFPPSDEQLKSGTASVVCLLNNFYPREAKVQWKVDNALQSGNSQESVTEQDSKDSTYSLSSTLTLSKADYEKHKVYACEVTHQGLSSPVTKSFNRGEC
notes: Two DARPins are linked in tandem to each heavy chain C-terminus of the IgG; also called anti-c-Met/anti-EGFR (E01+E69) DARPins bispecific chimeric protein
As to B2, in experiment [3], the Kd (in general, the equilibrium constant for the complex coming apart) is less than 0.01 nM; the koff is less than 3.4e-05 s⁻¹; the kon was found to be 110000 M⁻¹ s⁻¹.
